Measured values reported in publication PMC2766422.
Read-outs that look alike come from different tables or passages of the source.

What was measured:
[1] = target: T1, PTB1 (human, UniProt P26599-1 1-531); assay: filter binding
[2] = target: T2, PTB1/W3 (human, UniProt P26599-1 1-531, F371W); assay: Trp fluorescence quenching
[3] = target: T3, PTB1:12 (RRM1-RRM2) (human, UniProt P26599-1 1-301); assay: EMSA
[4] = target: T1, PTB1; assay: EMSA
[5] = target: T4, PTB1/W4 (human, UniProt P26599-1 1-531, F487W); assay: Trp fluorescence quenching
[6] = target: T1, PTB1; assay: EMSA; remark: listed apart in the source
[7] = target: PTB1/W1 (human, UniProt P26599-1 1-531, F98W); assay: EMSA
[8] = target: T4, PTB1/W4; assay: EMSA
[9] = target: T2, PTB1/W3; assay: EMSA
[10] = target: T5, PTB1:34 (RRM3-RRM4) (human, UniProt P26599-1 334-531); assay: EMSA
[11] = target: T3, PTB1:12 (RRM1-RRM2); assay: EMSA; remark: listed apart in the source
[12] = target: T1, PTB1; assay: EMSA; remark: listed apart in the source
[13] = target: T5, PTB1:34 (RRM3-RRM4); assay: EMSA; remark: listed apart in the source
[14] = target: T3, PTB1:12 (RRM1-RRM2); assay: EMSA; remark: listed apart in the source
[15] = target: T5, PTB1:34 (RRM3-RRM4); assay: EMSA; remark: listed apart in the source
[16] = target: T1, PTB1; assay: EMSA; remark: listed apart in the source
[17] = target: T1, PTB1; assay: EMSA; remark: listed apart in the source
[18] = target: T1, PTB1; assay: EMSA; remark: listed apart in the source

B1: HCV X SL3 (structured_RNA)
RNA: GGAGACUUGGUGGCUCCAUCUUAGCCCUA
- Kd [1]: 410 ± 30 nM
- binding result [2]: binds
- Kd [3]: 1600 ± 600 nM
- Kd [4]: 285 ± 120 nM
- binding result [5]: binds

B2: GABA RNA11 (ssRNA)
RNA: GGGACUACGCAAUUCUCUUUUCUGUCUACAAAUCCAAAG
- Kd [6]: 15 ± 2 nM
- binding signal [7]: ~2 fold lower affinity than PTB1
- binding signal [8]: ~2 fold lower affinity than PTB1
- binding signal [9]: ~2 fold lower affinity than PTB1
- Kd [10]: 50 ± 3 nM
- binding result [11]: no binding

B3: c-src 3' end RNA (structured_RNA)
RNA: GGGAUCGCUUCGCUGAGGCUGGGGGCUGCUCUCUGCAUGUGCUUCCUCCACCGCCCCUGUGUGUUUCCAGCUCUCUCCCCGUCCCUUUAGCUUACCCUGCAUCCCACCUGUAUGAGCCGUACCC
- binding result [12]: binds
- binding result [13]: binds

B4: GABAA gamma2 exon 4 RNA (structured_RNA)
RNA: GGGCUUCUUCGGAUGUUUUCCUUCAAG
- binding result [14]: no binding
- binding result [15]: no binding
- binding result [16]: no binding

B5: c-src exon N1 RNA (structured_RNA)
RNA: GGGAUCGGUGCCAUCGAUGUCAGGUGUGUACCCCUUAGGAGG
- binding result [14]: no binding
- binding result [15]: no binding
- binding result [16]: no binding

B6: HCV X SL2 (structured_RNA)
RNA: GGGUCACGGCUAGCUGUGAAAGGUCCGUGAG
- binding result [16]: no binding

B7: c-src 5' SL (39-mer) (structured_RNA)
RNA: GGAUCCUUCUCUCUGCUUCUCUCUCGCUGGCCCUUAGGAGG
- Kd [17]: 45 ± 2 nM

B8: c-src 5' SL + N1 (78-mer, RNA78) (structured_RNA)
RNA: GGCAACCCUCUCCUUCUCUCUGCUUCUCUCUCGCUGGCCCUUAGGAGGAAGGUGCCAUCGAUGUCAGGUGUGUACCGAGG
- Kd [18]: 80 ± 2 nM
